Assay results from patent US6472171.

T1: chicken protein disulfide isomerase, P09102
T1 chain: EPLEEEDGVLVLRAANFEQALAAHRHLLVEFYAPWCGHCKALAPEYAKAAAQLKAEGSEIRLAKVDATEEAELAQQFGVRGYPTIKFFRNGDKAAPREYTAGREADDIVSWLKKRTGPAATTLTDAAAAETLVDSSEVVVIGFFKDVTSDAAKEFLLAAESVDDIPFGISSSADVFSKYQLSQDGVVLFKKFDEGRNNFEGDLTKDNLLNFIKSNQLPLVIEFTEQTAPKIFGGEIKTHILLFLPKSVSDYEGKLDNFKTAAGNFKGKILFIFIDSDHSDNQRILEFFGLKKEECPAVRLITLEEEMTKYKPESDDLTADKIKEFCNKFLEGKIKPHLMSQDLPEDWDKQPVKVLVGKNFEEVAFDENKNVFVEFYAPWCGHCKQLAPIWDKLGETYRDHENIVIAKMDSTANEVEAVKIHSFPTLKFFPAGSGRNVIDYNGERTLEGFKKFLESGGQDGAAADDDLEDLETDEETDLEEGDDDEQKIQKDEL

B1: chicken prolyl 4-hydroxylase subunit (protein)
chain: HTDFFTSIGHMTDLINTEKDLVISKLKDYIKAEESKLEQIKKWAEKLDKLTDTATKDPEGFLGHPANAFKLMKRLNTEWGELESLVLKDMSDGFISNMTIQRQFFPNDEDQTGARKALLRLQDTYNLDTDTLSRGNLPGVKHKSFLTAEDCFELGKIRYTEADYYHTELWMEQALKQLDEGEVSSADKVYILDYLSYAVYQQGDLSKAMMLTKRLLELDPEHQRANGNMKYFEYIMAKEKEANKSSTDAEDQTDKETEVKKKDYLPERRKYEMLCRGEGLKMTPRRQKRLFCRYYDGNRNPRYILGPVKQEDEWDKPRIVRFLDIISDEEIETVKELAKPRLSRATVHDPETGKLTTAHYRVSKSAWLSGYESPVVSRINTRIQDLTGLDVSTAEELQVANYGVGGQYEPHFDFGRKDEPDAFKELGTGNRIATWLFYMSDVSAGGATVFPEVGASVWPKKGTAVFWYNLFPSGEGDYSTRHAACPVLVGNKWVSNKWLHERGQEFRRPCTLSELE
B2: human prolyl 4-hydroxylase subunit (protein)
chain: HPGFFTSIGQMTDLIHTEKDLVTSLKDYIKAEEDKLEQIKKWAEKLDRLTSTATKDPEGFVGHPVNAFKLMKRLNTEWSELENLVLKDMSDGFISNLTIQRQYFPNDEDQVGAAKALLRLQDTYNLDTDTISKGNLPGVKHKSFLTAEDCFELGKVAYTEADYYHTELWMEQALRQLDEGEISTIDKVSVLDYLSYAVYQQGDLDKALLLTKKLLELDPEHQRANGNLKYFEYIMAKEKDVNKSASDDQSDQKTTPKKKGVAVDYLPERQKYEMLCRGEGIKMTPRRQKKLFCRYHDGNRNPKFILAPAKQEDEWDKPRIIRFHDIISDAEIEIVKDLAKPRLRRATISNPITGDLETVHYRISKSAWLSGYENPVVSRINMRIQDLTGLDVSTAEELQVANYGVGGQYEPHFDFARKDEPDAFKELGTGNRIATWLFYMSDVSAGGATVFPEVGASVWPKKGTAVFWYNLFASGEGDYSTRHAACPVLVGNKWVSNKWLHERGQEFRRPCTLSELE

Key:
[1] = biological target: T1, chicken protein disulfide isomerase, …
[2] = biological target: human protein disulfide isomerase, P07237
human protein disulfide isomerase, P07237, sequence (P07237 18-508): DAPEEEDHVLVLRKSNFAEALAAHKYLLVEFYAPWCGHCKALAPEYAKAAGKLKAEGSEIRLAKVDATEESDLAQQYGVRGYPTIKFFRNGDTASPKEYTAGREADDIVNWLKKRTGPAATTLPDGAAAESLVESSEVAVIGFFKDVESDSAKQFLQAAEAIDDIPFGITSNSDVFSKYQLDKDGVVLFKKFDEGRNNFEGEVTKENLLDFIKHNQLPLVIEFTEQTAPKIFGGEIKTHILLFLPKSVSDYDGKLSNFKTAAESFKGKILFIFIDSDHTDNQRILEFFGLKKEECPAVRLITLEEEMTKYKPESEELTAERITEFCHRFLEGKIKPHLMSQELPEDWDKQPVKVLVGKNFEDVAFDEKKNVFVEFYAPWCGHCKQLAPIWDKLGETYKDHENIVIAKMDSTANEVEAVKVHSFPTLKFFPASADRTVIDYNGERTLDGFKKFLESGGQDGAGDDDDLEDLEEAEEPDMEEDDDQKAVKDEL

Protein	production of hydroxylated, heterotrimeric type 1 procollagen in yeast (plasmid Gp5563, cPDI/cP4-H) [1]	production of hydroxylated, heterotrimeric type 1 procollagen in yeast (plasmid Gp5511, cPDI/hP4-H) [1]	production of hydroxylated, heterotrimeric type 1 procollagen in yeast (plasmid Gp5565, hPDI/hP4-H) [2] [times lower]
B1	produce levels of hydroxylated heterotrimeric procollagen equal to that found with plasmid Gp5511	–	–
B2	–	Plasmid Gp5511 (cPDI/hP4-H) generated the first hydroxylated type 1 (α1α2) procollagen expressed in yeast	< 3
